Consider 69 sequences from the domain aggregation screens of Martell et al. (2025).

This series can be described thus: soluble fraction after stress (log2 fold change); higher = more stays soluble; pooled small domains, quantitative proteomics. The following applies: stress: pH 4. The essentials: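 Pooled custom libraries of small protein domains were stressed at pH 4 and then measured by high-throughput quantitative proteomics. The fold change in the amount of each domain that stays soluble after the acid stress serves as a measure of aggregation propensity. Fold changes are given on a log2 scale, and higher values mean more of the domain stayed soluble.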

For the sequence “HMGETDDDFRELEEFVEKTKFDKLGTFMYSKEEGTPAARLPEQIHGNTKKSRYNKIMSIQQKVSNEN”, the “soluble fraction (log2)” value was -0.897.
As for “HMGETPEILRDWEAAQNAVNDMLSKYAPGGYMGKIIYPLLTPLKERLEAGERTPDLYNAIVEAT”, the “soluble fraction (log2)” value was -0.763.
In the case of “HMGETYTIPDVRGYTLEDAMELPEIKENGFTIIEGRQIVDADVPVGQIISQTPEAESIAKSNVKEITVNIS”, the “soluble fraction (log2)” value is -0.367.
As for “HMGEVPVETKDGIKVHVHTVDKSQTAYGISRLYNITLNELYESNPEAKLELSIGQKLYFPVK”, the “soluble fraction (log2)” value was -0.426.
For the sequence “HMGEVVRAPMPGNVLKMEVAQGQEVEEGDLLLVLEAMKMENDIVAPKGGIVIQLVVDKGMVVETDDPLVVI”, the “soluble fraction (log2)” value was -0.509.
The same measure for “HMGEWNSVFSVPSSVVDKHLKTASSVYVKVLLVILRNAGNRISDQQISEQLSVPVDEVQEAIRYWNAAGIF”: -0.816; for “HMGFAANLSRLMEYHNISMYRLAKEVGVHQTTVKNWLEEESEPKIAALEKIVGLLGVSYDELLG”: -1.72; for “HMGFLTGNTQGEVNRKTKNQMVNIFLPTTPNPTSGFLLFVPKKDILRLTMTVEEGIKMIISAGMLTPS”: 0.0322.
For the sequence “HMGFTDREREIIRNDLVATGRELFGTFGLKKTSIEDLTKAVGIAQGSFYTFFNSKEELYLEVMDREGEA”, the “soluble fraction (log2)” value was -1.47.
In the case of “HMGGALSPDFGWLAMIDPDEGRAITLYDIASGEAIAVLDTHEARVAALAWSPDGTRLASGDQNGLIVQWEI”, the “soluble fraction (log2)” value was -1.43.
“HMGGEEPYGSGSLRLAAGAVVPSGYTIKGNEDSMLYHTTESPWYKQTIAEVWFNAESAAQRAGFTRWDAKD”: the “soluble fraction (log2)” value was -0.672.
As to “HMGGEIGSGKNGYVAFYKGKKVDVKADSMYGAQKTAAKYFNAKKEYDVNVVLAEVDGKQYVQS”, the “soluble fraction (log2)” value came out at 0.151.
With “HMGGGVERLTPRQREVLGYMAEGRSNSWIAGAIGFSEKAVVQHTSKIYDALGLAVDADDHRRVLAVLRYLT”, the “soluble fraction (log2)” value is -1.07.
Consider “HMGGKWKLRILWHIHHGDTRFSTLKRGIPEISEKILAQQLRELEEHQLIKRRVVTVMPPHVVYEL”, for which the “soluble fraction (log2)” value was -0.518.
As for “HMGGLAEIILNAIEIEGGFLPITDKSAPELIQSRLGMSKKAFKEAVGTLYKNRDIAIEPNGLRKI”, the figure is -0.162; as for “HMGGLALAEREVVEWLSQRNLLPSPDVVARAAAHPDGLGWLERSLAVLEGPRLFLGLGDLVPEP”, -1.02.
Take “HMGGLAVQLVHAMTDQIRSGRLKAGDKLPTEAAIMKDFGVSRTVVREAISRLQASGWVDTRHGIGTFVLHQ”: the “soluble fraction (log2)” value worked out at 0.188.
The same measure for “HMGGLIEPLSARELEVLELMSLGKTNQEIARDLVVASGTIKAHAASIYRKLDAANRTEAVTHARELGIL”: -0.814; for “HMGGPEVLELEDVKVGSPGPDEIKVTNHAIGLNYIDTYHRSGLYPLKLPSGIGLEAAGKVEEIGSNV”: -0.511; for “HMGGQEEALNRLVLRELLGTLEKKERDLIVRRYFYDQTQTKIAEALGISQVQVSRMEKRILKKMREGF”: -0.833.
Turning to “HMGGRSARVRRAVLDAVVELLGEGGVRAVTIAEVAKRSGVNASSIYRRWRSIDALILDAAQDL”, the “soluble fraction (log2)” value is -0.578.
Take “HMGGSDIYLGAFNIPQGSVRVTSGGQALTEGKDFTIDYNLGSVKIINQAILNSGIPVSVSYENNAG”: the “soluble fraction (log2)” value was -0.294.
As for “HMGGSLADAKRFLADLLADGPVPAKGVRADADGAGHTWPTIRRAQKALGIEATKTGMKGGWVWALPR”, the figure is 0.00461.
Turning to “HMGGSVYTVQKGDTLWSIAKEQLGSPLRYAEIYDLNKDVIEEAARGRGKKDSSNGHWLVVGTSLQIPEAT”, the “soluble fraction (log2)” value is -0.077.
For “HMGGTAGKINAIGVNFRTGPSTSYTSLGLLGKDTAVTVIGTSGKWYKVTIVSTGKTGYVYATYVNLTP”, the “soluble fraction (log2)” value is -0.102.
“HMGGVIEDDRGQWAHPGEVTKINSNNITMKGVDFPVLGISDTGDKKMMQPGKDYKFDGNSVTEYPMA”: the “soluble fraction (log2)” value was -0.5.
The same measure for “HMGGWEEGVYVVREGDTLSDIVHDAVKGTEIHPDFILNAIVRVNPSAFVRGNPSWMLAGKKIK”: -0.373; for “HMGGYVTGTIDLTKFGYAFVITEESEDDVFVAARNLNTALHGDQVKVLLYARHKGKRPEGEVVEIISRSRA”: -1.4; for “HMGHEEPITFDRLPQAAQTFLKTHFDTLTVAYIVADRKFMGVEYEVKYTDRTEVDFRSDGQWESV”: -0.443.
As to “HMGHKTLTVELQEKIENLPQTLDKYNLTLGNNKMSVDYTYSVKEKQTGITNLLQDLKEHKFDIVYLVGQDN”, the “soluble fraction (log2)” value is -0.613.
The same measure for “HMGHLSNENAGRLLDRVLNDKIHAIMLGHLSKENNMPELAHEAVRMEITMGESRYKADDFPIYVA”: -0.00322; for “HMGHTKLVVDIVEELKLEQGALLPILHAIQDELGYVPTKSVPFIADSLNLSRAEVHGVISFYHYFR”: -0.741; for “HMGIAWGMLREQVAASDVSYRSEVLDILDRTPVWIYDAEGKIVDGRKKRLMDLQGGEPYRHMLEHFFPDLR”: -1.96.
As for “HMGIDAIDNFVSKIIMKIEGLGESEVPTSTIGKFIMEGLQYLDTVAYVRYASVYKNFKEAKDFEQFVGSL”, the figure is -0.566; as for “HMGIDRPLFTLAQFARQIGEQVKISLSLPQDGRRRLQGKVLSVGESGIVLDVDGREFTVAIGNVDKARL”, -0.197; as for “HMGIDSSVYVEARYELGHLYLKQKKYAAAYASFKEILDMYASTTPGVLPGAYNKLAEIGMKRIPKNKL”, -0.182.
Consider “HMGIIQAQIPGLVSRLFVKKGDKVAVNQRLFILEAMKMENEIDSPIQGMVEKIHITTGSKVEKGDLIMEIV”, for which the “soluble fraction (log2)” value is at least 0.43.
For the sequence “HMGIIYGKNPVLEAISSGTTINKIYAQTSNKEIDSVIKEALKRKIIVVNTDKQKLDKMIDGKNSQGIIASI”, the “soluble fraction (log2)” value came to 0.36.
In the case of “HMGIKAADIVTNDIQFNTQAQFDKYKDLYPTLGWGNYDPNKTYTMQGFKNKLKPNELFTGTPNLKIEDT”, the “soluble fraction (log2)” value is -0.105.
The same measure for “HMGIKDRIVYIMEKEKLSIPLFAKKIGIGPSTLLHIIRGKNAPSLQVVQAIHKAYPDIDLNWLI”: 0.0346; for “HMGIKSSASLQEAAEKAQSAYYDIEHSGVATAVDIQRAWVAMVAAQIDAGEKLDSGTITLYERLKTST”: -0.0327.
For the sequence “HMGIMNFDTWLKSLPGTPTPTIAAKKSGLAAPTLLRHVERGYSTADNVIAIAKAYGVSPIDALVDNGML”, the “soluble fraction (log2)” value is -0.201.
As for “HMGIMSEITHRVLRLLGLLESRSTWTGSDLAERLGVTQRTIRRDVIRLRELGYQVDSVQGLDGGYRMS”, the “soluble fraction (log2)” value was -0.0721.
For “HMGIPVSIGQLDFNQARGNLALQVRASDFAALEQLRQRLGQTGESVQLGSASRDGDAVSARVVIGGQ”, the “soluble fraction (log2)” value was -0.0672.
As to “HMGIQQNHMTLHARSVASSANVPAEHFDTLVEKLIESGDIKVWKAREILMNLSRQHEEILDES”, the “soluble fraction (log2)” value was -0.365.
Turning to “HMGISGSDLEKMIRNILVNNTDVVETIKSGQDKKGKKQKFLQGLIMKEARGQTDPREAASLLAKLLE”, the “soluble fraction (log2)” value came out at 0.202.
For the sequence “HMGITMFGQNLKKLRTSKNLSQSKLSKILGISSSTIGMYEQGRRFPDQTILTKIADFFDVSTDYLLGR”, the “soluble fraction (log2)” value is 0.339.
Take “HMGIVAQLPTIRVNGKTLYYYDAQSGDNIYSIAEKLGVTVEDIRANNPGVADGVKPRMRLFFPTSLAK”: the “soluble fraction (log2)” value came out at 0.0671.
Regarding “HMGIVYGVIKENWDQDHPGMVKVEILQGESGKNVSDWIPVMSPYAGKEFGAYALPEIGTQAVVAFE”, the “soluble fraction (log2)” value was -0.0368.
Consider “HMGIYDQAAAAYIEFVESKNRAPKWNELIDALYKENGKDWIDRSTLHGLLRRKEFQELLAQKRKEHLV”, for which the “soluble fraction (log2)” value was -0.159.
As for “HMGIYFIIAAKNQENNIEEFIRTTLFRIVYGKEESINNITLVDLKSKDNTKNIMEEIARENENVKV”, the “soluble fraction (log2)” value is -0.696.
For “HMGKAPREVQVGELLRVPALNAEGEVLRRDGESVELSIQGKKLRLPLAQLEAFSPRRFARRGEGKVRGRIE”, the “soluble fraction (log2)” value was 0.266.
For the sequence “HMGKDLLGYEVFAESGDLVGILKDVMWLPHSDVYVITKGGKEFLIPVIPEVVKGINHEQGVIVISPMEGLL”, the “soluble fraction (log2)” value was -0.572.
As to “HMGKDTLKLKKNAIPYDENGKKLTNLGYSYIKKTTVLNYYGTKIINGSTYYFLGDGVYIKAANVGTTSH”, the “soluble fraction (log2)” value was 0.232.
With “HMGKEYERALQQVTKSEIDSDEKLQQQMDALVNSPRISDKEDAWALLLVKKLRNEGVEWDELPDVLSERVQ”, the “soluble fraction (log2)” value is -0.856.
As for “HMGKGGVAYLLESEFGIELPKDMQREFGPIANDIVDSLGREVSGAELKSMFWKEYIERETPFLLLLVTGQL”, the “soluble fraction (log2)” value was -0.762.
In the case of “HMGKIFSELTPREIEVVRLIADGLSNQQIAEELFLSNGTVRNHISTILEKTGLEHRTQIAVMWLR”, the “soluble fraction (log2)” value is -0.742.
Regarding “HMGKKIVERRNTILNMVNKYGTLDFPQLRDAFPDVSDVTLRKDLQYLDSTKQAIRTHGGIKSI”, the “soluble fraction (log2)” value was -0.00897.
With “HMGKLQFREKLNGILELGKEKHRVLTMEDVEKYFEEDALSEEQMELVYDYLLSQKIAVTGYVKK”, the “soluble fraction (log2)” value was determined as 0.414.
For “HMGKPPNNRIHRAKRDYALNLVKEHYPDFGPTLAAEKLAEHHGFTVSRETLRKWMIEDGIWLSRKQRR”, the “soluble fraction (log2)” value is -0.0217.
The same measure for “HMGKQIKEIVEEYYDSTSKNSPVGGSWKTSLDGVDLTSPNITIWTRTKIKYVDGSESIVTPQSL”: -0.528.
Consider “HMGKRPTIQMVAEMAGVSRGTVDRVLNGRSYVSAQVRQRVLAALQETGYISSREHHQQALQS”, for which the “soluble fraction (log2)” value came to 0.0645.
Consider “HMGKRRGLKVAEEVFADRGYNPDGTLVNRSLPGAFVKDPDEAIARVIKMVKTKKVTAVNGEEIDIAADSI”, for which the “soluble fraction (log2)” value was -0.462.
The same measure for “HMGKSDEIFIQKSALYEELGQPDRALEMIYSALKSDSLNIDVLHRLVTLLINQNKNEDAILYNQKIID”: -0.424.
As for “HMGKTEETLQMEKLVEALRRSGRMKYEDAYRIVYAAFPDAKDFEGMLSGAIRAGFIELQMGNDGAFLRAL”, the figure is -0.67; as for “HMGKVNGFEITVIEGKNVVGSITPRQAIAKNSDGVIQLRGEQSFSATDQVLINELAFYIKSNNLKA”, -1.23.
“HMGLAALLQSGPVAGTVLSHQPGGKVVIAFQGQAYPLNLKGRTLQPGQSVLARMAGEQISLEVI”: the “soluble fraction (log2)” value is -0.0159.
For “HMGLDERNLKLFAASLLEQAGKKITESTMTYLLDKTGSDMENIQNEVEKIIGYTMNHTVVTTEDIDAV”, the “soluble fraction (log2)” value was -0.745.
On to “HMGLDPVFKKWVDDNPWYTENRVLRALTHDYAEELKQTNPQLVGVEFLDQVKKRVQADHPEFFQ”, for which the “soluble fraction (log2)” value was -0.552.
